B1: Cytochrome P450 1B1 (Homo sapiens), Q16678 (parent)
chain: MGTSLSPNDPWPLNPLSIQQTTLLLLLSVLATVHVGQRLLRQRRRQLRSAPPGPFAWPLIGNAAAVGQAAHLSFARLARRYGDVFQIRLGSCPIVVLNGERAIHQALVQQGSAFADRPAFASFRVVSGGRSMAFGHYSEHWKVQRRAAHSMMRNFFTRQPRSRQVLEGHVLSEARELVALLVRGSADGAFLDPRPLTVVAVANVMSAVCFGCRYSHDDPEFRELLSHNEEFGRTVGAGSLVDVMPWLQYFPNPVRTVFREFEQLNRNFSNFILDKFLRHCESLRPGAAPRDMMDAFILSAEKKAAGDSHGGGARLDLENVPATITDIFGASQDTLSTALQWLLLLFTRYPDVQTRVQAELDQVVGRDRLPCMGDQPNLPYVLAFLYEAMRFSSFVPVTIPHATTANTSVLGYHIPKDTVVFVNQWSVNHDPLKWPNPENFDPARFLDKDGLINKDLTSRVMIFSVGKRRCIGEELSKMQLFLFISILAHQCDFRANPNEPAKMNFSYGLTIKPKSFKVNVTLRESMELLDSAVQNLQAKETCQ

Variants of: B1
Settings: with tie2_human TEK

effect of a mutation on the interaction	Variant
decreasing interaction strength	R368H
disrupting interaction strength	A115P

Variants of: B1
Settings: with tie2_human TEK
Remark: another data set of the same source

effect of a mutation on the interaction	Variant
disrupting interaction strength	E229K

Variants of: B1
Settings: with tie2_human TEK
Remark: another data set of the same source

effect of a mutation on the interaction	Variant
with no effect	E229K
